T1: IL18-BP (Mus musculus, UniProt Q9Z0M9)
T1 sequence (Q9Z0M9 29-193): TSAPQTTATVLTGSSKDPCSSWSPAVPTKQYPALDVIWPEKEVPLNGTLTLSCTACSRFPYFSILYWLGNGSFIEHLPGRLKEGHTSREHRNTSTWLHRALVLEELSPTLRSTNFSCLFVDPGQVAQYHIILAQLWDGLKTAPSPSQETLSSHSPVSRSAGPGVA

B1: Engineered IL-18: engineered IL-18, sequence from US 20190070262A1, listed therein as mCS2 (SEQ ID NO: 61) (protein)
chain: HFGRLHCTTAVIRNINDQVLFVDKRQPVFEDMTDIDQSASEPQTRLIIYAYGDSRARGKAVTLSVKDSKMSTLSCKNKIISFEEMDPPENIDDIQSDLIFFQKRVPGHNKMEFESSLYEGHFLACQKEDDAFKLILKKKDENGDKSVMFTLTNLHQSHHHHHH
B2: BOJ-5G4-F4: Anti PVRIG mAb 407 mAb mouse IgG1 (antibody, V domains shown)
VH: QVQLQQSGAELAKPGSSVMISCKASGYTFTNYAVHWIKQTTGQALEWTGYIAPGSGVTKYNEKFKGKATLTVDKSSTTAYMQLSSLTPVDTAVYYCASGTTRFAYWGQGTLVTVSS
VL: DIVLTQSPALAVSLGQRATISCRASQSVSLSSYNLMQWYQQKPGQEPKILIYDASNLPSGIPARFSGSGSGTDFTLTIDPVQADDIATYYCQQSKDDPLTFGSGTKLEIK

What was measured:
IL18-BP = target: T1, IL18-BP; conditions: cited from earlier work
[1] = MC38ova tumor-bearing mice treated with anti-mIL18BP or engineered mIL-18: weight, serum cytokines, spleen; assay type: in vivo, mouse
Method: Experiments were performed in C57Bl/6 (female, 6-8 wk, Envigo). Mice were anesthetized with 10% Ketamine and 10% Xylazine mixture injected intraperitoneal. Next, mice were inoculated with MC38ova cells (1.2×10^6) subcutaneously to the right flank in 50 μl/mice.
Spleens were harvested from mice 24 hours after the 4th treatment and weighed. For IL15 experiments, mice were treated with a single dose of 0.5 μg, 1.5 μg of IL15, or with a mix of 0.5 μg IL15 and 2.33 μg IL15R.

B16/Db-hmgp100 melanoma = assay: Syngeneic B16/Db-hmgp100 mouse tumor model; assay type: in vivo; conditions: anti-PVRIG combination study, vs isotype control mAbs
Method: B16/Db-hmgp100 cells were kindly provided by Dr. Hanada et al. (HHS agency) and were licensed from NIH. B16/Db-hmgp100 cells were generated by double transduction of B16F10 with H-2 Db and a retrovirus that encodes chimeric mouse gp100 that is comprised of the human gp10025-33 and the rest of mouse gp100. Cells were cultured in RPMI 1640 (Biological Industries, 01-100-1A) with 10% FBS (Biological Industries, 04-127-1A), and 100 μg/mL penicillin/streptomycin (Biological Industries, 03-031-1B), 1% Glutamax (Life technologies, 35050-038, 1% Sodium pyruvate (Biological Industries, 03-042-1B), 0.01% 2-mercaptoethanol (Life technologies, 31350-010, 10 μg/ml Blasticidin (InvivoGen, ant-bl-05). 1×10^5 B16/Db-hmgp100 cells subcutaneously into the back right flank of mice. […]
At day 4 post tumor inoculation mice were treated with mAbs (as detailed below) injected on day 4, 7, 11, 14, 18 and 21 post inoculation. Tumor growth was measured with caliper every 2-3 days. […]
Two-way ANOVA with repeated measures, followed by two-way ANOVA with repeated measures for selected pairs of groups using JMP (Statistical Discoveries™) software. Analyses of tumor growth measurements were performed by comparing tumor volumes measured on the last day on which all study animals were alive. Statistical differences in percentage of mice tumor free were determined by a Log Rank Mantel-Cox test. […]

Row | Molecule | Binding to IL18-BP (IL18-BP) | Serum levels of IFNg, TNFa, MCP1 and IL6 ([1]; 4 hours after the 4th treatment, 0.32 mg/kg SC) | Serum levels of IL18 ([1]; 4 hours after the 4th treatment, detection identifies also engineered IL18) | Serum levels of IFNg ([1]; 24 hours after the 4th treatment) | Spleen enlargement compared to control ([1]; 24 hours after the 4th treatment, average) | Serum levels of IL18 ([1]; by 24 hours after the 4th treatment) | Tumor growth (B16/Db-hmgp100 melanoma)
1 | B1 | shown not to bind IL18-BP | elevated serum levels of IFNg, TNFa, MCP1 and IL6 | very high serum levels of IL18 | elevated serum levels of IFNg | 4.9 folds | returned to baseline | –
2 | B2 | – | – | – | – | – | – | comparable tumor growth to mice treated with isotype control mAbs
